From patent publication US20240218066A1, “USE OF ANTI-PD-1 ANTIBODY IN COMBINATION WITH FIRST-LINE CHEMOTHERAPY IN TREATMENT OF ADVANCED NON-SMALL CELL LUNG CANCER” (SHANGHAI JUNSHI BIOSCIENCES CO., LTD., priority 2021, published 2024)

Key:
[1] = tested on: patients with untreated advanced NSCLC
Procedure: (§1) This is a randomized, double-blind, placebo-controlled, multicenter, phase III clinical study for assessing the efficacy and safety of toripalimab (JS001) or placebo in combination with first-line chemotherapy in patients with untreated advanced NSCLC and exploring the population with optimal biomarker prediction.
(§2) Toripalimab 240 mg/placebo was administered by intravenous infusion once every three weeks (Q3W) in cycles of 21 days, with treatment continued until the patients met the discontinuation criteria, i.e., recorded progressive disease, unacceptable AEs, investigator-assessed unsuitability for continued treatment, withdrawal of informed consent, 2 years of JS001 treatment, or other reasons as specified in the protocol.
(§3) The selection of cisplatin or carboplatin was at the discretion of the investigator.
(§4) Safety analysis set (SS): including all patients who received at least one dose of the study drug (JS001/placebo/chemotherapeutic agent).
(§5) Safety analysis was performed in SS and crossover treatment analysis sets, where safety data from the double-blind stage of the primary study and the crossover treatment stage were analyzed separately. Safety analyses include drug exposure, compliance, adverse events, laboratory examinations, vital signs, physical examinations, electrocardiogramaminations, ECOG scores, etc.
(§6) All safety analyses were based on the SS population (464 patients), including 308 patients in the test group and 156 patients in the control group. […] The primary safety analysis results based on the SS population in the double-blind stage of the primary study are as follows:

[2] = tested on: patients with untreated advanced NSCLC; assay: Phase III clinical study, safety analysis (SS population); conditions: SS population, test group
Procedure: as §1, §2, §3, §4, §5, §6

## JS001: humanized IgG4 anti-PD-1 mAb with light and heavy chain amino acid sequences SEQ ID NOs: 9 and 10
[1]
  SAE judged by the investigator to be related to JS001: infectious pneumonia: 1.6%
[2]
  SAE judged by the investigator to be related to JS001: anemia: 2.6%
  SAE judged by the investigator to be related to JS001: immune-mediated hepatitis: 1.0%
  SAE judged by the investigator to be related to JS001: immune-mediated pneumonia: 2.6%
  SAE judged by the investigator to be related to JS001: interstitial lung disease: 1.3%
  SAE judged by the investigator to be related to JS001: leukopenia: 1.0%
  SAE judged by the investigator to be related to JS001: liver function abnormality: 1.3%
  SAE judged by the investigator to be related to JS001: neutropenia: 1.9%
  SAE judged by the investigator to be related to JS001: pulmonary inflammation: 1.0%
  SAE judged by the investigator to be related to JS001: thrombocytopenia: 2.3%
